Experimental data as given in patent publication US20240270821A1, “GIP/GLP1/GCG TRI-RECEPTOR AGONISTS AND USES THEREOF” (priority 2023, published 2024).
Numbering of substitutions follows the chain as printed.

T1: human GIP receptor (human) (UniProt P48546)
T1 sequence (looked up): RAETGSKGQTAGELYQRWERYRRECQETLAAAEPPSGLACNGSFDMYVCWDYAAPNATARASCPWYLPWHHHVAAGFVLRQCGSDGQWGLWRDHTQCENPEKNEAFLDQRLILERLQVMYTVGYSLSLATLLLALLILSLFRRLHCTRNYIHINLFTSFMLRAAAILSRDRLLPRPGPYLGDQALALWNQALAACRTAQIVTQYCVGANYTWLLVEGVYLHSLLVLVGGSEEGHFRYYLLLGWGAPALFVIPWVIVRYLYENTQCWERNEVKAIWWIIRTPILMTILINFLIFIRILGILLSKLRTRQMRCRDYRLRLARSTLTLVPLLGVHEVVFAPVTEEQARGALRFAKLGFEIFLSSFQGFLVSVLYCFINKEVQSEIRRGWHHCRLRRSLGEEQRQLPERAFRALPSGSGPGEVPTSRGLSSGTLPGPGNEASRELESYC

B1: Example 393 (peptide)
chain: YXQGTXTSDYXILLDKKAQXAFIEYLEEGGPSSGAPPPS
modifications: synthetic construct; SITE 2: note = 2-Aminoisobutyric Acid; SITE 6: note = alpha-methyl-L-phenylalanine; SITE 11: note = alpha-methyl-L-serine; SITE 17: note = Lysine is chemically modified through conjugation of the epsilon-amino group of the Lysine side chain with (2-[2-(2-Amino-ethoxy)-ethoxy]-ac)
B2: Example 418 (peptide)
chain: B1 chain with Y10X, X11S, E27L
modifications: synthetic construct; SITE 2: note = 2-Aminoisobutyric Acid; SITE 6: note = alpha-methyl-L-phenylalanine; SITE 10: note = 3-(4-Pyridyl)-L-alanine; SITE 17: note = Lysine is chemically modified through conjugation of the epsilon-amino group of the Lysine side chain with (2-[2-(2-Amino-ethoxy)-ethoxy]-
B3: Example 408 (peptide)
chain: B1 chain with X11S, S39E
modifications: synthetic construct; SITE 2: note = 2-Aminoisobutyric Acid; SITE 6: note = alpha-methyl-2-fluoro-L-phenylalanine; SITE 17: note = Lysine is chemically modified through conjugation of the epsilon-amino group of the Lysine side chain with (2-[2-(2-Amino-ethoxy)-ethoxy]-acetyl)-(gamma-Glu)-CO-(CH2) 16-
B4: Example 419 (peptide)
chain: B1 chain with X11S, E27L
modifications: synthetic construct; SITE 2: note = 2-Aminoisobutyric Acid; SITE 6: note = alpha-methyl-L-phenylalanine; SITE 17: note = Lysine is chemically modified through conjugation of the epsilon-amino group of the Lysine side chain with (2-[2-(2-Amino-ethoxy)-ethoxy]-acetyl)2-(gamma-Glu)-CO-(CH2 )16-CO2H; SI
B5: Example 406 (peptide)
chain: B1 chain with X11S
modifications: synthetic construct; SITE 2: note = 2-Aminoisobutyric Acid; SITE 6: note = alpha-methyl-2-fluoro-L-phenylalanine; SITE 17: note = Lysine is chemically modified through conjugation of the epsilon-amino group of the Lysine side chain with (gamma-Glu)2-CO-(CH2)16-CO2H; SITE 20: note = 2-Aminoisobutyric
B6: Example 415 (peptide)
chain: B1 chain with X11S, A21X
modifications: synthetic construct; SITE 2: note = 2-Aminoisobutyric Acid; SITE 6: note = alpha-methyl-2-fluoro-L-phenylalanine; SITE 17: note = Lysine is chemically modified through conjugation of the epsilon-amino group of the Lysine side chain with (gamma-Glu)2-CO-(CH2)16-CO2H; SITE 20: note = 2-Aminoisobutyric
B7: Example 414 (peptide)
chain: B1 chain with X11S, K16X
modifications: synthetic construct; SITE 2: note = 2-Aminoisobutyric Acid; SITE 6: note = alpha-methyl-2-fluoro-L-phenylalanine; SITE 16: note = L-ornithine; SITE 17: note = Lysine is chemically modified through conjugation of the epsilon-amino group of the Lysine side chain with (gamma-Glu)2-CO-(CH2)16-CO2H; SITE
B8: Example 397 (peptide)
chain: B1 chain with X11S, L13X, K16X, S39E
modifications: not fully specified; synthetic construct; SITE 2: note = 2-Aminoisobutyric Acid; SITE 6: note = alpha-methyl-L-phenylalanine; SITE 13: note = alpha-methyl-leucine; SITE 16: note = L-ornithine; SITE 17: note = Lysine is chemically modified through conjugation of the epsilon-amino group of the Lysine side chain with (2-[2)
B9: Example 409 (peptide)
chain: B1 chain with X11S, I12S
modifications: synthetic construct; SITE 2: note = 2-Aminoisobutyric Acid; SITE 6: note = alpha-methyl-2-fluoro-L-phenylalanine; SITE 17: note = Lysine is chemically modified through conjugation of the epsilon-amino group of the Lysine side chain with (2-[2-(2-Amino-ethoxy)-ethoxy]-acetyl)-(gamma-Glu)-CO-(CH2) 16-
B10: Example 396 (peptide)
chain: B1 chain with X11S, L13X, S39E
modifications: synthetic construct; SITE 2: note = 2-Aminoisobutyric Acid; SITE 6: note = alpha-methyl-L-phenylalanine; SITE 13: note = alpha-methyl-leucine; SITE 17: note = Lysine is chemically modified through conjugation of the epsilon-amino group of the Lysine side chain with (2-[2-(2-Amino-ethoxy)-ethoxy]-ace)
B11: Example 400 (peptide)
chain: B1 chain with X11S, L13X, S39E
modifications: synthetic construct; SITE 2: note = 2-Aminoisobutyric Acid; SITE 6: note = alpha-methyl-2-fluoro-L-phenylalanine; SITE 13: note = alpha-methyl-leucine; SITE 17: note = Lysine is chemically modified through conjugation of the epsilon-amino group of the Lysine side chain with (2-[2-(2-Amino-ethoxy)-et)
B12: Example 416 (peptide)
chain: B1 chain with X11S, A21N
modifications: synthetic construct; SITE 2: note = 2-Aminoisobutyric Acid; SITE 6: note = alpha-methyl-2-fluoro-L-phenylalanine; SITE 17: note = Lysine is chemically modified through conjugation of the epsilon-amino group of the Lysine side chain with (gamma-Glu)2-CO-(CH2)16-CO2H; SITE 20: note = 2-Aminoisobutyric
B13: Example 413 (peptide)
chain: B1 chain with Y10X, X11S
modifications: not fully specified; synthetic construct; SITE 2: note = 2-Aminoisobutyric Acid; SITE 6: note = alpha-methyl-2-fluoro-L-phenylalanine; SITE 10: note = 3-(4-Pyridyl)-L-alanine; SITE 17: note = Lysine is chemically modified through conjugation of the epsilon-amino group of the Lysine side chain with (gamma-Glu)2-CO-(CH2)1
B14: Example 394 (peptide)
chain: B1 chain with X11S, L13X
modifications: synthetic construct; SITE 2: note = 2-Aminoisobutyric Acid; SITE 6: note = alpha-methyl-L-phenylalanine; SITE 13: note = alpha-methyl-leucine; SITE 17: note = Lysine is chemically modified through conjugation of the epsilon-amino group of the Lysine side chain with (2-[2-(2-Amino-ethoxy)-ethoxy]-ace)

These binders were tested against human glucagon receptor (human) (UniProt P47871) (assay: cell-based or functional assay).
Sequence of human glucagon receptor (human) (P47871 26-477): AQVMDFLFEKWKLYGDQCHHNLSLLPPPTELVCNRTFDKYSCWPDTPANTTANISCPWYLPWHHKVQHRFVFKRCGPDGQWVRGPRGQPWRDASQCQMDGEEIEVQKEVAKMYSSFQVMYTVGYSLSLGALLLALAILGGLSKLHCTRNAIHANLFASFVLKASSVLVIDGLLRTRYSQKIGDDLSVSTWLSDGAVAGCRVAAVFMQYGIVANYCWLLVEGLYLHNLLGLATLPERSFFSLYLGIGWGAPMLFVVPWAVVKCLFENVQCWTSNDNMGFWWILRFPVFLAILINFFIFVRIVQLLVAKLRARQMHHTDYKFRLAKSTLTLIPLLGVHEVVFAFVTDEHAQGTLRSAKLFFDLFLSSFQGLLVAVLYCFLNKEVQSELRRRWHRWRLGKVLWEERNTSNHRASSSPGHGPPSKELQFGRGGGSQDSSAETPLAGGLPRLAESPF

Row | Binder | Relative cAMP EC50 [nM] | cAMP Rel EC50, nM (1% HSA) [nM]
1 | B1 | 0.947 | 151
2 | B2 | 4.7 | 627
3 | B3 | 1.93 | 472
4 | B4 | 8.52 | 1650
5 | B5 | 1.23 | 254
6 | B6 | 8.64 | 1090
7 | B7 | 4.56 | 487
8 | B8 | 5.22 | 1110
9 | B9 | 7.92 | 1190
10 | B10 | 4.99 | 468
11 | B11 | 2.53 | 265
12 | B12 | 2.08 | 348
13 | B13 | 6.3 | 629
14 | B14 | – | 1090

The binders below were run against hGLP-1R (Homo sapiens, UniProt P43220) (assay: cell-based or functional assay).
Sequence of hGLP-1R (P43220 24-463): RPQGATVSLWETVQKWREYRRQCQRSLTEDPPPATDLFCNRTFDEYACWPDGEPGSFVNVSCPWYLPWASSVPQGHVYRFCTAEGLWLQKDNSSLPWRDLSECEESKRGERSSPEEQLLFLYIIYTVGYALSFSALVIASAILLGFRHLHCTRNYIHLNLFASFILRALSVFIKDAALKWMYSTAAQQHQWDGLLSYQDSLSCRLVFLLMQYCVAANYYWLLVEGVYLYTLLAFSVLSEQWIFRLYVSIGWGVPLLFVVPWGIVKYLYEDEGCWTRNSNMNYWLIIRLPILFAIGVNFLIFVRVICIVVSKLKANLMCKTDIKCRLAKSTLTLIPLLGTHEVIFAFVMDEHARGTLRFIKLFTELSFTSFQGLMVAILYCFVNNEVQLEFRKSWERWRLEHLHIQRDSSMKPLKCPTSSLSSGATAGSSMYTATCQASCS

Row | Binder | Relative cAMP EC50 [nM] | cAMP Rel EC50, nM (1% HSA) [nM]
15 | B1 | 0.211 | 29.6
16 | B2 | 0.264 | 36.6
17 | B3 | 0.253 | 37.9
18 | B4 | 0.615 | 65.5
19 | B5 | 0.208 | 27.8
20 | B6 | 0.38 | 52.6
21 | B7 | 0.176 | 32.8
22 | B8 | 0.2 | 34.9
23 | B9 | 0.484 | 41.7
24 | B10 | 0.293 | 38.2
25 | B11 | 0.253 | 29.1
26 | B12 | 0.331 | 40.8
27 | B13 | 0.564 | 41.4
28 | B14 | – | 33.2

What follows are binders tested against T1, human GIP receptor (human) (assay: cell-based or functional assay).

Row | Binder | Relative cAMP EC50 [nM] | cAMP Rel EC50, nM (1% HSA) [nM]
29 | B1 | 0.0458 | 12.4
30 | B2 | 0.0153 | 6.02
31 | B3 | 0.0329 | 15.3
32 | B4 | 0.0235 | 9.47
33 | B5 | 0.0233 | 10.5
34 | B6 | 0.0496 | 28.9
35 | B7 | 0.0303 | 14.9
36 | B8 | 0.0247 | 10.1
37 | B9 | 0.363 | 66.6
38 | B10 | 0.024 | 9.5
39 | B11 | 0.0158 | 3.86
40 | B12 | 0.0393 | 27.6
41 | B13 | 0.0881 | 23.5
42 | B14 | – | 7.22
